The text below walks through data of publication PMC3814787, “Potential Regulatory Interactions of Escherichia coli RraA Protein with DEAD-box Helicases* ^([image sbox.jpg])” (The Journal of Biological Chemistry, 2013).

B1: CsdAΔ (truncated CsdA, residues 1 to 443) (domain or fragment, Escherichia coli, UniProt P0A9P6 1-443, looked up)
chain: MAEFETTFADLGLKAPILEALNDLGYEKPSPIQAECIPHLLNGRDVLGMAQTGSGKTAAFSLPLLQNLDPELKAPQILVLAPTRELAVQVAEAMTDFSKHMRGVNVVALYGGQRYDVQLRALRQGPQIVVGTPGRLLDHLKRGTLDLSKLSGLVLDEADEMLRMGFIEDVETIMAQIPEGHQTALFSATMPEAIRRITRRFMKEPQEVRIQSSVTTRPDISQSYWTVWGMRKNEALVRFLEAEDFDAAIIFVRTKNATLEVAEALERNGYNSAALNGDMNQALREQTLERLKDGRLDILIATDVAARGLDVERISLVVNYDIPMDSESYVHRIGRTGRAGRAGRALLFVENRERRLLRNIERTMKLTIPEVELPNAELLGKRRLEKFAAKVQQQLESSDLDQYRALLSKIQPTAEGEELDLETLAAALLKMAQGERTLIVPPD
notes: CsdA (DeaD), DEAD-box RNA helicase, Escherichia coli, residues 1 to 443, without the C-terminal extension; Vector pROEX-HT, gift of M. Dreyfus and T. Bizebard; also called CsdA (DeaD); source: E. coli BL21(DE3), purified (HisTrap FF)
B2: Regulator of ribonuclease activity A (RraA) (natural protein, Escherichia coli)
chain: MKYDTSELCDIYQEDVNVVEPLFSNFGGRASFGGQIITVKCFEDNGLLYDLLEQNGRGRVLVVDGGGSVRRALVDAELARLAVQNEWEGLVIYGAVRQVDDLEELDIGIQAMAAIPVGAAGEGIGESDVRVNFGGVTFFSGDHLYADNTGIILSEDPLDIE
notes: RraA, regulator of ribonuclease activity A, Escherichia coli; ring-shaped homotrimer (52 kDa); residues 2-159 modelled in the crystal; Trimer at 150 mM NaCl; about 100 kDa (hexamer) at 300 mM NaCl
B3: DEAD-box helicase SrmB (enzyme, Escherichia coli, UniProt P21507 1-444, looked up)
chain: MTVTTFSELELDESLLEALQDKGFTRPTAIQAAAIPPALDGRDVLGSAPTGTGKTAAYLLPALQHLLDFPRKKSGPPRILILTPTRELAMQVSDHARELAKHTHLDIATITGGVAYMNHAEVFSENQDIVVATTGRLLQYIKEENFDCRAVETLILDEADRMLDMGFAQDIEHIAGETRWRKQTLLFSATLEGDAIQDFAERLLEDPVEVSANPSTRERKKIHQWYYRADDLEHKTALLVHLLKQPEATRSIVFVRKRERVHELANWLREAGINNCYLEGEMVQGKRNEAIKRLTEGRVNVLVATDVAARGIDIPDVSHVFNFDMPRSGDTYLHRIGRTARAGRKGTAISLVEAHDHLLLGKVGRYIEEPIKARVIDELRPKTRAPSEKQTGKPSKKVLAKRAEKKKAKEKEKPRVKKRHRDTKNIGKRRKPSGTGVPPQTTEE
notes: SrmB, DEAD-box RNA helicase, Escherichia coli; monomer of 50 kDa as printed; only residues 219-388 (C-terminal RecA-like domain) are resolved in the crystal; source: E. coli BL21(DE3), purified (ammonium sulfate precipitation, heparin column)

Series [1] concerns the molecule itself. As to the kind of experiment: AUC; sedimentation velocity, 20 °C; 300 mM NaCl, 50 mM HEPES pH 7.5, 10% glycerol, 2 mM tris(2-carboxyethyl)phosphine; experiments with CsdAΔ; about 10 μM.
The target of series [2] is B3. As to the kind of experiment: AUC; sedimentation velocity, absorbance at 280 nm, 20 °C; 150 mM NaCl, 50 mM HEPES pH 7.5, 10% glycerol; mixtures at 1:1 helicase:RraA trimer, about 10 μM. The note with it: both partners purified.
For series [3], the target named is T1, DEAD-box helicase DbpA (Escherichia coli, UniProt P21693 1-457).
T1 construct: DbpA, DEAD-box RNA helicase, Escherichia coli; monomer of 49 kDa as printed; source: E. coli BL21(DE3), purified (ammonium sulfate precipitation, heparin column)
T1 sequence (looked up): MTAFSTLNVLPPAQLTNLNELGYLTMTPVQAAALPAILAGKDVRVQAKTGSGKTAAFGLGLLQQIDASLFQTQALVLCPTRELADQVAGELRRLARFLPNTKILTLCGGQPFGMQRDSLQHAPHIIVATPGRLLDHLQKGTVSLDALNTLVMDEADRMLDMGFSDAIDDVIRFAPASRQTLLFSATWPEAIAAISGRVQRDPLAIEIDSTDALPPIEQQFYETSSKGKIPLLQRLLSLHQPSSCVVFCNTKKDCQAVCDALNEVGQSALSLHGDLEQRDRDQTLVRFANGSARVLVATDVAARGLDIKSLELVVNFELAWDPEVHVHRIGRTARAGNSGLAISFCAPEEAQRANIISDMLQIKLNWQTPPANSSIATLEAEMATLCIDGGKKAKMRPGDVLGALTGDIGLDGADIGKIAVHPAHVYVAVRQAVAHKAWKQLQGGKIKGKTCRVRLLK
The series is described as above. The note with it: both partners purified.

Series [4] deals with the molecule itself. The series is described as above.
Series [5] deals with the molecule itself. As to the kind of experiment: crystal structure; RraA and RhlB(398-421) mixed at 1:20; 74.8 μM RraA, 1.48 mM peptide, 423 mM NaCl, 99 mM (NH4)2SO4; hanging drop, 16 °C; 100 mM sodium citrate pH 5.4, 32% methylpentanediol, 200 mM ammonium acetate; 2.8 Å.
The target in series [6] is B1. As to the kind of experiment: native gel or EMSA; 5% native polyacrylamide gel, Tris glycine running buffer with 1 mM DTT, 4 °C; helicase 10 μM and RraA 30 μM (2.5 and 7.5 μM for the mutants of Figure 3); bands of the complex cut out and analysed by SDS-PAGE. The note with it: both partners purified.
In series [7] the target is T2, DEAD-box helicase RhlE (Escherichia coli, UniProt P25888 1-454).
T2 construct: RhlE, DEAD-box RNA helicase, Escherichia coli; source: E. coli BL21(DE3), purified (ammonium sulfate precipitation, heparin column)
T2 sequence (looked up): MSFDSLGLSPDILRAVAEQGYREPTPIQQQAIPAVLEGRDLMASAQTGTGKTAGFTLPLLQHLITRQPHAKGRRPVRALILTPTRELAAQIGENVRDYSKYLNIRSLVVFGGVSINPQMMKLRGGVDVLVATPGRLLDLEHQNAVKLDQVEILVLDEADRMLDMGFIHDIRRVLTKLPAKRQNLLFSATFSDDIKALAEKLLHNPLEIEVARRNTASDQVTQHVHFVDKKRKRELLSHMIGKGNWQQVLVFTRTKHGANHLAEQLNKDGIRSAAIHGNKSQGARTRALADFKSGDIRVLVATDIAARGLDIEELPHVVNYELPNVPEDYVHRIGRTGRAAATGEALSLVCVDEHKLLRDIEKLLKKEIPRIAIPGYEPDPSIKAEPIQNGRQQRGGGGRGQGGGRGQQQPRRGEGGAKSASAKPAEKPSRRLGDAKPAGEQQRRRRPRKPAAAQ
The series is described as above. The following applies: both partners purified.

Series [8] deals with B2. As to the kind of experiment: SAXS; SrmB and RraA mixed at a 1:3 molar ratio; 150 mM NaCl, 20 mM HEPES pH 7.0, 5% glycerol, 2 mM DTT; 15 °C; 5 to 55 μM; ab initio envelope. The note with it: both partners purified.
The target of series [9] is B2. Briefly: AUC; sedimentation velocity, absorbance at 280 nm, 20 °C; 150 mM NaCl, 50 mM HEPES pH 7.5, 10% glycerol; mixtures at 1:1 helicase:RraA trimer, about 10 μM. The following applies: both partners purified.

Take B1: the “stoichiometry N” value in [1] is 2.

For the molecule B2, the dissociation constant Kd in [2] is below 10 µM. The binding result in [3], in series [6] and in [7] was “binds” each time. Moreover, the “stoichiometry N” value in series [4] was 3; in [5] it was 6.

Regarding B3, the entries for the “stoichiometry N” value in [8] and in [9] were 1 SrmB per RraA trimer and 1 helicase monomer per RraA trimer, respectively.

B4: DEAD-box helicase RhlB (enzyme, Escherichia coli, UniProt P0A8J8 1-421, looked up)
chain: MSKTHLTEQKFSDFALHPKVVEALEKKGFHNCTPIQALALPLTLAGRDVAGQAQTGTGKTMAFLTSTFHYLLSHPAIADRKVNQPRALIMAPTRELAVQIHADAEPLAEATGLKLGLAYGGDGYDKQLKVLESGVDILIGTTGRLIDYAKQNHINLGAIQVVVLDEADRMYDLGFIKDIRWLFRRMPPANQRLNMLFSATLSYRVRELAFEQMNNAEYIEVEPEQKTGHRIKEELFYPSNEEKMRLLQTLIEEEWPDRAIIFANTKHRCEEIWGHLAADGHRVGLLTGDVAQKKRLRILDEFTRGDLDILVATDVAARGLHIPAVTHVFNYDLPDDCEDYVHRIGRTGRAGASGHSISLACEEYALNLPAIETYIGHSIPVSKYNPDALMTDLPKPLRLTRPRTGNGPRRTGAPRNRRRSG
notes: RhlB, DEAD-box RNA helicase, Escherichia coli; monomer of 47 kDa as printed; The printed mass of 47 kDa fits the whole protein; 'full-length RhlB' is said only of the crystallisation trials
Consider B4, for which the “stoichiometry N” value in series [9] is 1 helicase monomer per RraA trimer.
